One assay concerns the target T1, MusCD100 (cell surface) (mouse, UniProt O09126).
T1 chain: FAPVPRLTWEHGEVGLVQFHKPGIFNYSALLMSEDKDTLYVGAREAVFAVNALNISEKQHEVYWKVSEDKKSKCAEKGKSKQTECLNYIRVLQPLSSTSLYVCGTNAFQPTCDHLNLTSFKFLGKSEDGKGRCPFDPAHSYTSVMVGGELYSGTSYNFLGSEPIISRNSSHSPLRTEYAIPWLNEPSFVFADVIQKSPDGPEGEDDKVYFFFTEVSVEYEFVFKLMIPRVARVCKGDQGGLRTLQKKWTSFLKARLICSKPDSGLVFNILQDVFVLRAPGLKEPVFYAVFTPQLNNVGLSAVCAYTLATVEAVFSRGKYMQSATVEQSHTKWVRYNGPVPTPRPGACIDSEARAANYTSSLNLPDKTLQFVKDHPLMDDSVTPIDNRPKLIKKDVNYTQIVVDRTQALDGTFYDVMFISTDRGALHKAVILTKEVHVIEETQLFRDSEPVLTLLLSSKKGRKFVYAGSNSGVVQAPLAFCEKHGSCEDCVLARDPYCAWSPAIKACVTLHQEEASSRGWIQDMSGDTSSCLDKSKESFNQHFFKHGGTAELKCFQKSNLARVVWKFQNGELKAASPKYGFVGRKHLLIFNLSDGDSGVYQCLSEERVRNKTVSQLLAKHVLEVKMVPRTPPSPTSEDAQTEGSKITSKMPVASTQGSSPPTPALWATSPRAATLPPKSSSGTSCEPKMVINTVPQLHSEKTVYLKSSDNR
In words: FACS, HEK293.

The target of another assay is T2, MusCD100-His (mouse, UniProt O09126).
T2 chain: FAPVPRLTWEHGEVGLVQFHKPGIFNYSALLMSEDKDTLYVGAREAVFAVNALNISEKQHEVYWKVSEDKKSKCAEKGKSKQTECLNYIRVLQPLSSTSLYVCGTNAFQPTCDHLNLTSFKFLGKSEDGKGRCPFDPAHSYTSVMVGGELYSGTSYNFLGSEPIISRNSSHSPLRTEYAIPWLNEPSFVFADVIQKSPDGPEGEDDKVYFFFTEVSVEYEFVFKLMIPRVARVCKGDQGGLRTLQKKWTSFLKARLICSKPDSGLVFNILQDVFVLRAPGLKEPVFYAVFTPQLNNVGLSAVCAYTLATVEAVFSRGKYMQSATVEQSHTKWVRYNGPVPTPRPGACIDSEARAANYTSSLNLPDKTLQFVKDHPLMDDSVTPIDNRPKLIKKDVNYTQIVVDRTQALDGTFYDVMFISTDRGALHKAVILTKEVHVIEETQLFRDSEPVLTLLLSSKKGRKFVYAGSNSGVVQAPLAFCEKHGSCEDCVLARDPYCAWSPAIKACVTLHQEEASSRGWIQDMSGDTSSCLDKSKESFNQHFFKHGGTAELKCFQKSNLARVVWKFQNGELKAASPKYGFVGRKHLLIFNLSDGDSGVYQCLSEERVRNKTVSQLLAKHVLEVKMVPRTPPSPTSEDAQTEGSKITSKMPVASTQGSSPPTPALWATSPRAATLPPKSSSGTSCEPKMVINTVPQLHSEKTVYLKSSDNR
In words: ELISA. (An ELISA detects its analyte on a solid surface through an enzyme-linked reagent.)

Assay [1] deals with T3, HuCD100 (cell surface) (human, UniProt Q92854). Put plainly: FACS, HEK293.
Assay [2] concerns the target T3, HuCD100 (cell surface). In words: FACS, HuPBMC. In general terms: A flow cytometer gives signals particle by particle.
Assay [3] concerns the target T3, HuCD100 (cell surface). Put plainly: FACS, Jurkat.
The next assay concerns the target HuCD100-His (human, UniProt Q92854). Put plainly: ELISA.

The results in this text go back to patent publication US20260347464 (published 2026).

T3 sequence (Q92854 22-734): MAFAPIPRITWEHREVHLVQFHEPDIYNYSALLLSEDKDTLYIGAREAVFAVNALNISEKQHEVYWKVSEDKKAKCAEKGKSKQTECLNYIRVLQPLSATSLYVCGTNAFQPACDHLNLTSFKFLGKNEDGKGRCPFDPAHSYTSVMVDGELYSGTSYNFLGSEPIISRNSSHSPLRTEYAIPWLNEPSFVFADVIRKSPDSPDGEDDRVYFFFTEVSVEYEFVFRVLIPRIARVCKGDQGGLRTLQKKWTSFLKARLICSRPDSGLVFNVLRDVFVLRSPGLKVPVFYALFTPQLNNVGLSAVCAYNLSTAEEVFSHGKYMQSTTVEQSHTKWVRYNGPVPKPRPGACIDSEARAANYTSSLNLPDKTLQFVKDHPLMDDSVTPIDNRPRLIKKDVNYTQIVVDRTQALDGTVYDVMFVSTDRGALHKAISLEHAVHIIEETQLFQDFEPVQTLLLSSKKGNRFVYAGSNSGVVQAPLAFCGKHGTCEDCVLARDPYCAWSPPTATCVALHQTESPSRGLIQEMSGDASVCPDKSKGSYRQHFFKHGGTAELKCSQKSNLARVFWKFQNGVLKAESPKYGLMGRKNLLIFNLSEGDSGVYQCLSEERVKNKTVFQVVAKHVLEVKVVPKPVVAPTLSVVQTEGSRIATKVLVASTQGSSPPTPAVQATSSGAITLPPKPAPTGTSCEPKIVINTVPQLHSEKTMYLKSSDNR
Sequence of HuCD100-His (Q92854 22-734): as above

B1: H12 (antibody, V domains shown)
VH: QVQLQESGPGLVKPSGTLSLTCAVSGGSISSSNWWSWVRQPPGKGLEWIGEIYHSGSTNYNPSLKSRVTISVDKSKNQFSLKLSSVTAADTAVYYCARFVSSGYLGAFDIWGQGTMVTVSS
VL: QSVLTQPPSVSVSPGQTASITCSGDRLGDKYSYWYQQKPGQSPVLVIYQDSKRPSGIPERFSGSNSGNTATLTISGTQAMDEADYYCQVWDSSTAVFGGGTKLTVL
Consider B1, for which the EC50 – broadly, the concentration that produces a half-maximal response – with MusCD100 (cell surface) worked out at 0.0758 µg/mL; with MusCD100-His, 0.0112 µg/mL; with HuCD100 (cell surface) [1], 0.0369 µg/mL; with HuCD100 (cell surface) [2] it was 0.0177 µg/mL; with HuCD100 (cell surface) [3], 0.028 µg/mL; with HuCD100-His it was 0.0113 µg/mL.

B2: A15 (antibody, V domains shown)
VH: EVQLLESGGGLIQPGGSLRLSCAASGFTVSSNYMSWVRQAPGKGLEWVSVIYSGGSTYYADSVKGRFTISRDNSKNTLYLQMNSLRAEDTAVYYCAREVEGGMDVWGQGTTVTVSS
VL: SYVLTQPPSVSVSPGQTASIICSGDKLGDKYVYWYQQKSGQSPVLVIYQDRKRPSGIPERFSGSNSGNTASLAISGLQSEDEADYYCAAWDDSLNGWVFGGGTKLTVL
On to B2, for which the 50% effective concentration (EC50) amounted to 0.0548 µg/mL in the assay with MusCD100 (cell surface); 0.0101 µg/mL with MusCD100-His; 0.0269 µg/mL in the assay with HuCD100 (cell surface) [1]; 0.00589 µg/mL with HuCD100 (cell surface) [2]; 0.00851 µg/mL with HuCD100 (cell surface) [3]; 0.0076 µg/mL in the assay with HuCD100-His.

B3: A14 (antibody, V domains shown)
VH: ETQLVESGGGLVQPGGSLRLSCAASGFPFSSYEMNWVRQAPGKGLEWVAEISSSGSTIYYADSVKGRFTISRDNAKKSLYLQMNSLRAEDTAVYYCARGRFEGYCSSTNCHTGAFDFWGQGTMVTVSS
VL: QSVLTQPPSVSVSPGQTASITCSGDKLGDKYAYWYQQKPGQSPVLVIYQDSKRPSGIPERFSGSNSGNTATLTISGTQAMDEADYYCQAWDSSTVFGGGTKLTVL
Turning to B3, the EC50 came to 0.0599 µg/mL with MusCD100 (cell surface); 0.00792 µg/mL in the assay with MusCD100-His; 0.0277 µg/mL in the assay with HuCD100 (cell surface) [1]; 0.0145 µg/mL in the assay with HuCD100 (cell surface) [2]; 0.0195 µg/mL in the assay with HuCD100 (cell surface) [3]; 0.00613 µg/mL in the assay with HuCD100-His.

B4: C-C171 (antibody, V domains shown)
VH: QVQLQESGPGLVKPSGTLSLSCTVSGGSMSSNYLWSWVRQTPGKGLQWIGDIFHSGRTYYNPSLKRRVTISVDKSKNQFSLKLSSVTAADTAVYYCARQGWTTPFDYWGQGTPVTVSS
VL: DIQLTQSPSSVSASVGDRVTITCRASQGISSWLAWYQQKPGKAPKLLIYAASSLQSGVPSRFSGSGSGTDFTLTISSLQPEDFATYYCLQDVYYPWTFGQGTTVEIK
Turning to B4, the EC50 with MusCD100 (cell surface) worked out at 0.31 µg/mL; in the assay with MusCD100-His it was 0.031 µg/mL; with HuCD100 (cell surface) [1] it was 0.167 µg/mL; with HuCD100 (cell surface) [2], 0.0859 µg/mL; with HuCD100 (cell surface) [3], 0.449 µg/mL; with HuCD100-His, 0.0107 µg/mL.

B5: H96 (antibody, V domains shown)
VH: QVQLQQWGAGLLKPSETLSLTCAVYGGSFSGYYWSWIRQPPGKGLEWIGEINHSGSTNYNPSLKSRVTISVDTSKNQFSLKLSSVTAADTAVYYCARESNSYGYGTDYWGQGTLVTVSS
VL: QSALTQPPSVSVSPGQTATITCSGDKLGEKYAFWYQQKPGQSPVLVIYQDNKRPSGIPERFTGSNSGNTATLTIFGTQTMDEADYYCQAWDSSTYVFGTGTKVTVL
Consider B5, for which the EC50 with MusCD100 (cell surface) is 0.0504 µg/mL; with MusCD100-His, 0.0109 µg/mL; with HuCD100 (cell surface) [1] it was 0.0225 µg/mL; in the assay with HuCD100 (cell surface) [2], 0.0104 µg/mL; with HuCD100 (cell surface) [3] it was 0.0162 µg/mL; in the assay with HuCD100-His, 0.00968 µg/mL.

B6: C-B71 (antibody, V domains shown)
VH: QVQLQESGPGLVKPSQTLSLTCTVSGGSISSGGYYWSWIRQHPGKGLEWIGYIYYSGSTYYNPSLKSRVTISVDTSKNQFSLKLSSVTAADTAVYYCAREGVAAAGIDYWGQGTPVTVSS
VL: NIQLTQSPSSVSASVGDRVTITCRASQGISSWLAWYQQKPGKAPKLLISTASSVQSGVPTRFSASGSGTDFTLTISSLQPEDFATYYCQQGYRTPWTFGQGTKVEIK
Take B6: the EC50 with MusCD100 (cell surface) is 0.118 µg/mL; with MusCD100-His it was 0.00936 µg/mL; in the assay with HuCD100 (cell surface) [1], 0.0879 µg/mL; with HuCD100 (cell surface) [2], 0.177 µg/mL; with HuCD100 (cell surface) [3] it was 0.108 µg/mL; with HuCD100-His, 0.0119 µg/mL.

B7: H21 (antibody, V domains shown)
VH: EVQLVQSGGGLVQPGRSLRLSCAASGFTFDDYAMHWVRQAPGKGLEWVSGISWNSGSIGYADSVKGRFTISRDNAKNSLYLQMNSLRAEDTALYYCAKDIGGSYFDYYYYGMDVWGQGTLVTVSS
VL: EIVLTQSPATLSLSPGERATLSCRTSHNVNTYIAWYQQKPGQAPRLLFYDSSTRLPDTPARFSGSGSGTDFTLTISSLEPEDFAVYYCQQRTSWPLTFGGGTKVEIK
As to B7, the EC50 is 0.0814 µg/mL in the assay with MusCD100 (cell surface); 0.00686 µg/mL with MusCD100-His; 0.0374 µg/mL with HuCD100 (cell surface) [1]; 0.0154 µg/mL with HuCD100 (cell surface) [2]; 0.0258 µg/mL in the assay with HuCD100 (cell surface) [3]; 0.00595 µg/mL with HuCD100-His.

B8: H74 (antibody, V domains shown)
VH: QVQLQQWGAGLLKPSETLSLTCAVYGGSFSGYYWSWIRQPPGKGLEWIGEINHSGSTNYNPSLKSRVTISVDTSKNQFSLKLSSVTAADTAVYYCAGTRWLQFPLNYWGQGTLVTVSS
VL: SYVLTQPPSVSVSPGQTASITCSGDKLGDKYAYWYQQKPGQSPVLVLYQDAKRPSGIPERFSGSNSGNTATLTISGTQAMDEADYYCQAWDSSTAGYVFGTGTKVTVL
In the case of B8, the EC50 with MusCD100 (cell surface) came to 0.05 µg/mL; with MusCD100-His, 0.00478 µg/mL; with HuCD100 (cell surface) [1], 0.0274 µg/mL; with HuCD100 (cell surface) [2] it was 0.00828 µg/mL; with HuCD100 (cell surface) [3], 0.0138 µg/mL; with HuCD100-His, 0.00467 µg/mL.

B9: B13 (antibody, V domains shown)
VH: QVQLQQWGAGLLKPSETLSLTCAISSGSFSGYYWTWIRQPPGKGLEWIGETNHNGFTTYNTSLKSRITISIDASKNQFYLNLSSVTAADTATYFCARGPAYYADALDGFDIWGQGTMVTVSS
VL: QSVLTQPPSVSVSPGQTASITCSGDKLGDKYVSWYQQKPGQSPVLVIYQDNKRPSGIPERFSGSNSGNTATLTISGTQAMDEADYYCQAWDSSTKAYVFGAGTKVTVL
With B9, the EC50 with MusCD100 (cell surface) was 0.0697 µg/mL; with MusCD100-His, 0.00842 µg/mL; with HuCD100 (cell surface) [1], 0.0346 µg/mL; with HuCD100 (cell surface) [2], 0.0109 µg/mL; with HuCD100 (cell surface) [3], 0.0185 µg/mL; in the assay with HuCD100-His it was 0.00733 µg/mL.

B10: C-C081 (antibody, V domains shown)
VH: QVQLLESGGGLVKPGGSLRLSCAASGFTFSSYSMNWVRQAPGKGLEWVSSISSSSSYIYYADSVKGRFTISRDNAKNSLYLQMNSLRAEDTAVYYCARDHYPGPDAFDVWGQGTMVTVSS
VL: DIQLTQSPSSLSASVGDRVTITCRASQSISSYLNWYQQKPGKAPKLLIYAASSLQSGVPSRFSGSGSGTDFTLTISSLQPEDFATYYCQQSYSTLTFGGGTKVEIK
Regarding B10, the EC50 in the assay with MusCD100 (cell surface) was found to be 0.185 µg/mL; with MusCD100-His, 0.0541 µg/mL; with HuCD100 (cell surface) [1], 0.0927 µg/mL; with HuCD100 (cell surface) [2], 0.0194 µg/mL; in the assay with HuCD100 (cell surface) [3], 0.73 µg/mL; with HuCD100-His, 0.0141 µg/mL.

B11: H5 (antibody, V domains shown)
VH: QLQLQESGPGLVKPPGTLSLTCAVSGGSISSSNWWSWVRQPPGKGLEWIGEIYHSGSTNYNPSLKSRVTISVDTSKNQFSLKLSSVTAADTAVYYCAVYDFWSGSGLDYWGQGTLVTVSS
VL: SYVLTQPPSVSVSPGQTASITCSGDKLGDKFASWYQQKPGQSPVLVIYQDRKRPSRIPERFSGSNSGNTATLTITGTQTIDEADYYCQAWDSGTVIFGGGTKLTVL
As to B11, the EC50 in the assay with MusCD100 (cell surface) is 0.0606 µg/mL; with MusCD100-His, 0.00722 µg/mL; in the assay with HuCD100 (cell surface) [1], 0.0288 µg/mL; in the assay with HuCD100 (cell surface) [2], 0.0132 µg/mL; with HuCD100 (cell surface) [3] it was 0.0184 µg/mL; with HuCD100-His, 0.00639 µg/mL.
